Assay results: patent US20110143394, “Methods and Means for Metabolic Engineering and Improved Product Formation by Micro-Organisms” (Universiteit Leiden, published 2011)

T1: DasR (SCO5231) (Streptomyces coelicolor, UniProt Q9K492 SEQ:1-254)
T1 sequence: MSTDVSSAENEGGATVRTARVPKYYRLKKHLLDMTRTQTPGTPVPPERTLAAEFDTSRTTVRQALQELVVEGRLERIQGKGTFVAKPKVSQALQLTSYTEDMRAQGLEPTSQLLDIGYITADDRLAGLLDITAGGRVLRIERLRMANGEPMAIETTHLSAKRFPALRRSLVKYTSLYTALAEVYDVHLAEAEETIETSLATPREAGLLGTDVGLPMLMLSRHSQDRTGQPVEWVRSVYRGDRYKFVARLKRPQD

B1: crp cis-element oligo (dsDNA)
DNA 1: TGCGGCATCCTTGTGACAGATCACACTGTTTGGACT
DNA 2: AGTCCAAACAGTGTGATCTGTCACAAGGATGCCGCA
B2: crr dre oligo (dsDNA)
DNA 1: CCGTGAGGAGTGTGGTCTAGACCTCTAATCGGAACA
DNA 2: TGTTCCGATTAGAGGTCTAGACCACACTCCTCACGG

How the values were obtained:
DasR (SCO5231) [1] = target: T1, DasR (SCO5231); assay: EMSA; negative control; settings: tags: His6; chain copies: 2; label: fluorescent
Protocol: (§1) Electromobility gel shift assay (EMSA). EMSAs were performed with fluorescent probes (10 nM) with an ALF express sequencer (Filee et al., 2001). Purified DasR (3 μM) and 1000-fold excess of non-specific DNA were used in the reaction mixture. Predicted cis-acting elements were taken from the promoter regions of actII-ORF4 (SCO5085; 5′-[…]-3′ (SEQ ID NO:530)), and redZ (SCO5881; 5′-[…]-3′ (SEQ ID NO:531)). Known cis-acting elements upstream of crr (SCO1390; […]-3′ (SEQ ID NO:532)), and crp (SCO3571; 5′-[…]-3′ (SEQ ID NO:533)) were used as positive and negative controls, respectively. The 16 nt dre sites are underlined.

DasR (SCO5231) [2] = target: T1, DasR (SCO5231); assay: EMSA; no free probe left; 3 uM DasR, 10 nM probe, 1000-fold non-specific DNA; complex prevented by glucosamine-6-P (data not shown); settings: tags: His6; chain copies: 2; label: fluorescent
Protocol: as §1

Binder | binding result (DasR (SCO5231) [1]) | binding result (DasR (SCO5231) [2])
B1 | no binding | 
B2 |  | binds
